Source: IntAct's records for PubMed 21217703

B1: Telomeric repeat-binding factor 2-interacting protein 1 (Homo sapiens), Q9NYB0 (parent)
chain: MAEAMDLGKDPNGPTHSSTLFVRDDGSSMSFYVRPSPAKRRLSTLILHGGGTVCRVQEPGAVLLAQPGEALAEASGDFISTQYILDCVERNERLELEAYRLGPASAADTGSEAKPGALAEGAAEPEPQRHAGRIAFTDADDVAILTYVKENARSPSSVTGNALWKAMEKSSLTQHSWQSLKDRYLKHLRGQEHKYLLGDAPVSPSSQKLKRKAEEDPEAADSGEPQNKRTPDLPEEEYVKEEIQENEEAVKKMLVEATREFEEVVVDESPPDFEIHITMCDDDPPTPEEDSETQPDEEEEEEEEKVSQPEVGAAIKIIRQLMEKFNLDLSTVTQAFLKNSGELEATSAFLASGQRADGYPIWSRQDDIDLQKDDEDTREALVKKFGAQNVARRIEFRKK
B2: DNA-binding protein RAP1 (Saccharomyces cerevisiae), P11938 (parent)
chain: MSSPDDFETAPAEYVDALDPSMVVVDSGSAAVTAPSDSAAEVKANQNEENTGATAAETSEKVDQTEVEKKDDDDTTEVGVTTTTPSIADTAATANIASTSGASVTEPTTDDTAADEKKEQVSGPPLSNMKFYLNRDADAHDSLNDIDQLARLIRANGGEVLDSKPRESKENVFIVSPYNHTNLPTVTPTYIKACCQSNSLLNMENYLVPYDNFREVVDSRLQEESHSNGVDNSNSNSDNKDSIRPKTEIISTNTNGATEDSTSEKVMVDAEQQARLQEQAQLLRQHVSSTASITSGGHNDLVQIEQPQKDTSNNNNSNVNDEDNDLLTQDNNPQTADEGNASFQAQRSMISRGALPSHNKASFTDEEDEFILDVVRKNPTRRTTHTLYDEISHYVPNHTGNSIRHRFRVYLSKRLEYVYEVDKFGKLVRDDDGNLIKTKVLPPSIKRKFSADEDYTLAIAVKKQFYRDLFQIDPDTGRSLITDEDTPTAIARRNMTMDPNHVPGSEPNFAAYRTQSRRGPIAREFFKHFAEEHAAHTENAWRDRFRKFLLAYGIDDYISYYEAEKAQNREPEPMKNLTNRPKRPGVPTPGNYNSAAKRARNYSSQRNVQPTANAASANAAAAAAAAASNSYAIPENELLDEDTMNFISSLKNDLSNISNSLPFEYPHEIAEAIRSDFSNEDIYDNIDPDTISFPPKIATTDLFLPLFFHFGSTRQFMDKLHEVISGDYEPSQAEKLVQDLCDETGIRKNFSTSILTCLSGDLMVFPRYFLNMFKDNVNPPPNVPGIWTHDDDESLKSNDQEQIRKLVKKHGTGRMEMRKRFFEKDLL
B3: Telomeric repeat-binding factor 2 (Homo sapiens), Q15554 (parent)
chain: MAAGAGTAGPASGPGVVRDPAASQPRKRPGREGGEGARRSDTMAGGGGSSDGSGRAAGRRASRSSGRARRGRHEPGLGGPAERGAGEARLEEAVNRWVLKFYFHEALRAFRGSRYGDFRQIRDIMQALLVRPLGKEHTVSRLLRVMQCLSRIEEGENLDCSFDMEAELTPLESAINVLEMIKTEFTLTEAVVESSRKLVKEAAVIICIKNKEFEKASKILKKHMSKDPTTQKLRNDLLNIIREKNLAHPVIQNFSYETFQQKMLRFLESHLDDAEPYLLTMAKKALKSESAASSTGKEDKQPAPGPVEKPPREPARQLRNPPTTIGMMTLKAAFKTLSGAQDSEAAFAKLDQKDLVLPTQALPASPALKNKRPRKDENESSAPADGEGGSELQPKNKRMTISRLVLEEDSQSTEPSAGLNSSQEAASAPPSKPTVLNQPLPGEKNPKVPKGKWNSSNGVEEKETWVEEDELFQVQAAPDEDSTTNITKKQKWTVEESEWVKAGVQKYGEGNWAAISKNYPFVNRTAVMIKDRWRTMKRLGMN
partner: B1 chain
B4: DNA-binding protein rap1 (Schizosaccharomyces pombe (strain ATCC 38366 / 972)), Q96TL7 (parent)
chain: MSFTFTKSDGSSILFAVSKNFEHIRGFKNAIDCFKGKIEFLSFDKVDPTKHDYYLVAEDERVSDLDIPKGFFERNPEFRHKMLKIAWITQCIEQGKLLPTESFEVELNQDDVNRTHDGFRKRELFTLEDEKILIDHVHKNDINRFGTKVYEELARKYPQHSLESWRQHYKYMKKRLPPVSDSDESNYCQRIIVKPYSSQKDYTQSTHEQTLSSPISKSASVSKSENKALVNNKRYSDSYFYFSKMRRISIDVDYVDEDLNLINAYLSQFGKKRSLNELCALLSRRFSNRHTFSEWRALFMHFFPFINSEGVDPAILSDRETSAMLDETSDNEVADIDDQMIERKYLFSASEPNTVKSTNRLIFSERKAYAADDSIDNTPSKVPIVNSLSDPRTNRPFFYSNPDSMYRSISNPLHLVDSQHLSPLNRKTHFNNPIGQPQFTCLDDHEKTLRETSFRSLDDMSLRKSNSDNIFVKPGEDLEIPLLSDYSDSENISEKSSDDEEAFEKQVTSSYSSPIKVKSQGKSSKGSSGLDVREHEGSDDDAEVFVDRSPESFGATKVAHTSLEGNAASHKKVEENMQQPVTKKQKKYRMVNEEAHTGPTIIIPSDNNEKVTTLPAGHVPSEEKGKFINLAMHELQNEVSILRSSVNHREVDEAIDNILRYTNSTEQQFLEAMESTGGRVRIAIAKLLSKQTS
partner: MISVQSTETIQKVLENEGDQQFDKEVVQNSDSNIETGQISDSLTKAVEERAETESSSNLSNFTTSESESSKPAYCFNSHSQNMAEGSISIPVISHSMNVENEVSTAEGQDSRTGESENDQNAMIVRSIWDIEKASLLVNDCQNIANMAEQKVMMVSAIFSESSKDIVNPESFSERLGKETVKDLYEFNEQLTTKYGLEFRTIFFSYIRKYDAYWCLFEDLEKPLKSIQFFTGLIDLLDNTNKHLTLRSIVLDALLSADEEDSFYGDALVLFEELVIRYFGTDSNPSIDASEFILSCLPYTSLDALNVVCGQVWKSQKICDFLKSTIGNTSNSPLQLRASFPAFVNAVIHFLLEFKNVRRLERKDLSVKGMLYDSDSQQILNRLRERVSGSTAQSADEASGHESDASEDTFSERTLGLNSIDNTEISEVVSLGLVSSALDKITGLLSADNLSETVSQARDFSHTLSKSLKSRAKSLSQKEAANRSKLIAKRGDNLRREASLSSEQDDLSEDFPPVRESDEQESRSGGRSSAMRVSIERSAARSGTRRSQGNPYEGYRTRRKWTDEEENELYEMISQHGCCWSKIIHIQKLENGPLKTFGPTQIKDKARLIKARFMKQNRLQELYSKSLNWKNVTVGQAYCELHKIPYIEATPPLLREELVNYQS
B5: Telomere length regulator taz1 (Schizosaccharomyces pombe (strain ATCC 38366 / 972)), P79005 (parent)
chain: B4 partner
partner: B4 chain

Variants of: B1
Settings: with terf2_human TERF2, Q15554

| effect of a mutation on the interaction | Variant |
| --- | --- |
| disrupting interaction | MAEAMDLGKDPNGPTHSSTLFVRDDGSSMSFYVRPSPAKRRLSTLILHGGGTVCRVQEPGAVLLAQPGEALAEASGDFISTQYILDCVERNERLELEAYRLGPASAADTGSEAKPGALAEGAAEPEPQRHAGRIAFTDADDVAILTYVKENARSPSSVTGNALWKAMEKSSLTQHSWQSLKDRYLKHLRGQEHKYLLGDAPVSPSSQKLKRKAEEDPEAADSGEPQNKRTPDLPEEEYVKEEIQENEEAVKKMLVEATREFEEVVVDESPPDFEIHITMCDDDPPTPEEDSETQPDEEEEEEEEKVSQPEVGAAIKIRRQLMEKFNLDLSTVTQAFLKNSGELEATSAFLASGQRADGYPIWSRQDDIDLQKDDEDTREALVKKFGAQNVARRIEFRKK [I318R] |
| disrupting interaction | MAEAMDLGKDPNGPTHSSTLFVRDDGSSMSFYVRPSPAKRRLSTLILHGGGTVCRVQEPGAVLLAQPGEALAEASGDFISTQYILDCVERNERLELEAYRLGPASAADTGSEAKPGALAEGAAEPEPQRHAGRIAFTDADDVAILTYVKENARSPSSVTGNALWKAMEKSSLTQHSWQSLKDRYLKHLRGQEHKYLLGDAPVSPSSQKLKRKAEEDPEAADSGEPQNKRTPDLPEEEYVKEEIQENEEAVKKMLVEATREFEEVVVDESPPDFEIHITMCDDDPPTPEEDSETQPDEEEEEEEEKVSQPEVGAAIKIIRQLMEKFNLDLSTVTQARLKNSGELEATSAFLASGQRADGYPIWSRQDDIDLQKDDEDTREALVKKFGAQNVARRIEFRKK [F336R] |

Variants of: B2
Settings: with sir3_yeast SIR3, P06701
Sequence of sir3_yeast SIR3, P06701 (P06701 whole entry): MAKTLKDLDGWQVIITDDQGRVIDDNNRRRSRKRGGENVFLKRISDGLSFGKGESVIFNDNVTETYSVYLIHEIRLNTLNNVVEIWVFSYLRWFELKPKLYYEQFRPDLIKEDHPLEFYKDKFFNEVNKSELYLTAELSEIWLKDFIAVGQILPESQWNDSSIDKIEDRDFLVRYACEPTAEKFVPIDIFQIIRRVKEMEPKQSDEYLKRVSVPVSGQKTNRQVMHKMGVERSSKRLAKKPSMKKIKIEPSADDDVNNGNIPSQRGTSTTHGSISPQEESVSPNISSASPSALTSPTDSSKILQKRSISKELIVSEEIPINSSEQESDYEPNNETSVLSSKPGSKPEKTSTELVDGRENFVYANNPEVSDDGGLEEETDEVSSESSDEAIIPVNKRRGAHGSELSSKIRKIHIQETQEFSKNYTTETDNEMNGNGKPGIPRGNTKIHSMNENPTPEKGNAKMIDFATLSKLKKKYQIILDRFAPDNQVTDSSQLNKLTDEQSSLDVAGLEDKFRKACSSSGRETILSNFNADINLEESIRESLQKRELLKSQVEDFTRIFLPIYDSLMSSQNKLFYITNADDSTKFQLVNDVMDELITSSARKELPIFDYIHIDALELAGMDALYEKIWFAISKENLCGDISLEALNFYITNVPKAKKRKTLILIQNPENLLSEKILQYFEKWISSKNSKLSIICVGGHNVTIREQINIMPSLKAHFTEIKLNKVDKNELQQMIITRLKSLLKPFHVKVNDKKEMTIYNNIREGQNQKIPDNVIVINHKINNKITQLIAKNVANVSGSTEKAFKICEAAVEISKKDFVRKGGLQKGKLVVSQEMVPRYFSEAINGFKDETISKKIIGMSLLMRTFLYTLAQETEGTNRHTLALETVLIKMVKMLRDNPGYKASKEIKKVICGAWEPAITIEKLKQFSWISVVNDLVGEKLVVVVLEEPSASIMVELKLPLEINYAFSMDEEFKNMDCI

| Variant | effect of a mutation on the interaction |
| --- | --- |
| V737R | disrupting interaction |
| A733R | disrupting interaction |

More lines, now with the values ahead:

| effect of a mutation on the interaction | Variant |
| --- | --- |
| disrupting interaction | G760R |
| decreasing interaction | P730R |
| disrupting interaction | L755R |

Variants of: B3
Settings: with te2ip_human TERF2IP

| effect of a mutation on the interaction | Variant |
| --- | --- |
| disrupting interaction strength | L330E |
| disrupting interaction strength | L330R |

Variants of: B4
Settings: with taz1_schpo taz1, P79005

| effect of a mutation on the interaction | Variant |
| --- | --- |
| disrupting interaction | I655R |
| decreasing interaction | V651R |

Variants of: B5
Settings: with rap1_schpo rap1, Q96TL7

| effect of a mutation on the interaction | Variant |
| --- | --- |
| decreasing interaction | V387R |
| disrupting interaction | I379R |

Variants of: B5
Settings: with rap1_schpo rap1, Q96TL7
Remark: another data set of the same source

| Variant | effect of a mutation on the interaction |
| --- | --- |
| I379R | disrupting interaction strength |
| L383A | disrupting interaction |
| L383R | disrupting interaction |
| R384E | decreasing interaction |

Next, values leading:

| effect of a mutation on the interaction | Variant |
| --- | --- |
| disrupting interaction strength | I379A |
| decreasing interaction | L380R |
| disrupting interaction | R386E |
